Experimental data as given in patent US20250035634A1, “A METHOD FOR DETECTING CLUSTERING OF RAS PROTEIN” (Nanyang Technological University, priority 2021, published 2025).

Test system: KRasWT
Test: nanobar-guided KRasWT clustering upon EGF activation in U2OS cells
Assay type: cell-based
Conditions: EGF 100 ng/ml, 1 hr, mean±s.e.m.
Experimental: Cell imaging is performed with laser scanning confocal microscopy (Zeiss LSM 800 with Airyscan) and a Plan-Apochromat 100×/1.4 oil objective. EGFP is excited at 488 nm and detected at 490-570 nm. RFP is excited at 561 nm and detected at 570-645 nm. Images were taken with a resolution of 512×512 pixels, 16-bit and 124 nm pixel size. A scanning speed of 20 s/image and an averaging mode of 4 times/line can be applied. During imaging, the cells are maintained in live cell imaging solution (Thermo Fisher) at 37° C. in an on-stage incubator. […] The images are conducted with a single snap shot for display of Ras variants and the quantification. For the imaging of co-expressed K-Ras variants and CRaf-RBD, z-stack images can be taken and averaged for display and the intensity profiles. […]
To quantify the nanobar-guided clustering of Ras variants, the fluorescence intensity ratio at the nanobar end to the flat sidewall (i.e. Enrichment Index, EI) is calculated. […] Next, the nanobars covered by the cell to be analyzed are identified by a custom-written MATLAB (MathWorks) code. […] To minimize the possible human bias, all the parameters for the calculation and the sorting criteria for data validation have been kept consistent throughout the entire quantification process. After the data validation, the remaining data points are ready for plotting. […]

B1: EGF: Epidermal Growth Factor used to activate wild-type K-Ras in cells (protein, UniProt P01133 23-1207, looked up)
Pro-epidermal growth factor: PQHWSCPEGTLAGNGNSTCVGPAPFLIFSHGNSIFRIDTEGTNYEQLVVDAGVSVIMDFHYNEKRIYWVDLERQLLQRVFLNGSRQERVCNIEKNVSGMAINWINEEVIWSNQQEGIITVTDMKGNNSHILLSALKYPANVAVDPVERFIFWSSEVAGSLYRADLDGVGVKALLETSEKITAVSLDVLDKRLFWIQYNREGSNSLICSCDYDGGSVHISKHPTQHNLFAMSLFGDRIFYSTWKMKTIWIANKHTGKDMVRINLHSSFVPLGELKVVHPLAQPKAEDDTWEPEQKLCKLRKGNCSSTVCGQDLQSHLCMCAEGYALSRDRKYCEDVNECAFWNHGCTLGCKNTPGSYYCTCPVGFVLLPDGKRCHQLVSCPRNVSECSHDCVLTSEGPLCFCPEGSVLERDGKTCSGCSSPDNGGCSQLCVPLSPVSWECDCFPGYDLQLDEKSCAASGPQPFLLFANSQDIRHMHFDGTDYGTLLSQQMGMVYALDHDPVENKIYFAHTALKWIERANMDGSQRERLIEEGVDVPEGLAVDWIGRRFYWTDRGKSLIGRSDLNGKRSKIITKENISQPRGIAVHPMAKRLFWTDTGINPRIESSSLQGLGRLVIASSDLIWPSGITIDFLTDKLYWCDAKQSVIEMANLDGSKRRRLTQNDVGHPFAVAVFEDYVWFSDWAMPSVMRVNKRTGKDRVRLQGSMLKPSSLVVVHPLAKPGADPCLYQNGGCEHICKKRLGTAWCSCREGFMKASDGKTCLALDGHQLLAGGEVDLKNQVTPLDILSKTRVSEDNITESQHMLVAEIMVSDQDDCAPVGCSMYARCISEGEDATCQCLKGFAGDGKLCSDIDECEMGVPVCPPASSKCINTEGGYVCRCSEGYQGDGIHCLDIDECQLGEHSCGENASCTNTEGGYTCMCAGRLSEPGLICPDSTPPPHLREDDHHYSVRNSDSECPLSHDGYCLHDGVCMYIEALDKYACNCVVGYIGERCQYRDLKWWELRHAGHGQQQKVIVVAVCVVVLVMLLLLSLWGAHYYRTQKLLSKNPKNPYEESSRDVRSRRPADTEDGMSSCPQPWFVVIKEHQDLKNGGQPVAGEDGQAADGSMQPTSWRQEPQLCGMGTEQGCWIPVSSDKGSCPQVMERSFHMPSYGTQTLEGGVEKPHSLLSANPLWQQRALDPPHQMELTQ
modifications: Pro-epidermal growth factor
Enrichment Index (EI) of KRasWT: 1.89 ± 0.042
